Test results from PMC9330073, “Cargo Recognition Mechanisms of Yeast Myo2 Revealed by AlphaFold2-Powered Protein Complex Prediction” (Biomolecules, 2022).
Like-named read-outs stand apart in the source and are kept apart here.

Tests used:
[1] = target: GST-Pea2-CC1 (GST-tagged Pea2-CC1; dimer) (Saccharomyces cerevisiae (strain S288c)) (UniProt P40091); experiment: SEC-MALS; 100 μL of 100 μM protein on Superdex 200 Increase 10/300 GL; 50 mM Tris-HCl pH 7.5, 100 mM NaCl, 1 mM EDTA, 1 mM DTT
[2] = target: Kar9^N (N-terminal folded domain of Kar9) (Saccharomyces cerevisiae (strain S288c)) (UniProt P32526); experiment: ITC; 500 μM Myo2-GTD in the syringe titrated into 50 μM Kar9-MIS or Pea2-MIS in the cell, 25 °C; one-site binding model
[3] = target: Kar9^C (unstructured C-terminal region of Kar9) (Saccharomyces cerevisiae (strain S288c)) (UniProt P32526); experiment: as above
[4] = target: GST-Pea2-CC1 (GST-tagged Pea2-CC1; dimer) (Saccharomyces cerevisiae (strain S288c)) (UniProt P40091); experiment: as above
[5] = target: T1, Myo2-GTD (globular tail domain of Myo2) (Saccharomyces cerevisiae (strain S288c), UniProt P19524 1152-1574); experiment: ITC
T1 chain: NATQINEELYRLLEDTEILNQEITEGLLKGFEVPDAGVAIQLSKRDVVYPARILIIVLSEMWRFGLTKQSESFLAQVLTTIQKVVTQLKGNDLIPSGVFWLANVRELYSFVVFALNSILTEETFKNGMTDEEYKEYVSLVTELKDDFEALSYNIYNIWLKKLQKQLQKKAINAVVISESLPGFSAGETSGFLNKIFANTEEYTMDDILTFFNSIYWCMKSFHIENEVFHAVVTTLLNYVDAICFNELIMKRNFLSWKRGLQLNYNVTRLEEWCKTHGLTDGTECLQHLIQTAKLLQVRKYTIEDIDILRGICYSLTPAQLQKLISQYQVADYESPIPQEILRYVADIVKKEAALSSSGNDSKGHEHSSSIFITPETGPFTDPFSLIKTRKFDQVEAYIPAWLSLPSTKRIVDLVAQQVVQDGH

[6] = target: T2, Smy1-MIS::Myo2-GTD fusion protein (Saccharomyces cerevisiae | …); experiment: ITC
T2 chain: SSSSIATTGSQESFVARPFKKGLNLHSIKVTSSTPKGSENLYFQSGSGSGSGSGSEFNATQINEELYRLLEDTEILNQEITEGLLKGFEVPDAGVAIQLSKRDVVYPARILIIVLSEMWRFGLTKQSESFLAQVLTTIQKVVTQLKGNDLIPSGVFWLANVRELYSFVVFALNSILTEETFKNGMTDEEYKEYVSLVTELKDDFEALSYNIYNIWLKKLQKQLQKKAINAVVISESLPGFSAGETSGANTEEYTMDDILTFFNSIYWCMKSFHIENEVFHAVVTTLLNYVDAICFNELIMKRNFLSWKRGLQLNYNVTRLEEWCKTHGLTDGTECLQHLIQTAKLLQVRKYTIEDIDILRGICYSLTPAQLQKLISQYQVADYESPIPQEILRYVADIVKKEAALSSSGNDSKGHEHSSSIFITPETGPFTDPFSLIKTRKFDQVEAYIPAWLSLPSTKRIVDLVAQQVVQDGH

[7] = target: T1, Myo2-GTD (globular tail domain of Myo2); experiment: ITC
[8] = target: T3, Myo2-GTD D1297N (Saccharomyces cerevisiae); experiment: ITC
T3 chain: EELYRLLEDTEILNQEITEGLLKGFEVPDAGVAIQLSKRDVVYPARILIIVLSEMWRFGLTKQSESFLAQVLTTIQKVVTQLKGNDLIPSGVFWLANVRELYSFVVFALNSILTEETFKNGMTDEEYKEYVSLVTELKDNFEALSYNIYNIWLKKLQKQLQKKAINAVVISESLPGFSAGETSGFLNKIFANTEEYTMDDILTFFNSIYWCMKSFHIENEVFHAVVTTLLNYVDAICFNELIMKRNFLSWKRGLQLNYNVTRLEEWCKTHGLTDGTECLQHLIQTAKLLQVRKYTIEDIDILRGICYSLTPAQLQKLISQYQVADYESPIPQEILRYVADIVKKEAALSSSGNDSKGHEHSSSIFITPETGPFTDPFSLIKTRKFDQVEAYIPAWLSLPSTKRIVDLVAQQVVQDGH

[9] = target: T4, Myo2-GTD L1331S (Saccharomyces cerevisiae (strain S288c)); experiment: ITC
T4 chain: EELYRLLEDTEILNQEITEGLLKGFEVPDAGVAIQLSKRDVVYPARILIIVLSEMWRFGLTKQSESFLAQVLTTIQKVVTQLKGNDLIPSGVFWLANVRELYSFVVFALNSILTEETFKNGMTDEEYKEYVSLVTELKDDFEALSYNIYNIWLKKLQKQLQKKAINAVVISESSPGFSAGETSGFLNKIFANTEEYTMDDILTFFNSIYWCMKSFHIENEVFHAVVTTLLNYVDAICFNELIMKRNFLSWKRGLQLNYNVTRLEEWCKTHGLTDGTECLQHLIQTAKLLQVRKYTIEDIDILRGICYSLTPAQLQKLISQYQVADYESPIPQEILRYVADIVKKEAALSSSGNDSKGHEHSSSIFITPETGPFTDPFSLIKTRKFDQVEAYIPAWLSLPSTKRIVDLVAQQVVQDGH

[10] = target: T5, Myo2-GTD Y1303A (Saccharomyces cerevisiae); experiment: ITC
T5 chain: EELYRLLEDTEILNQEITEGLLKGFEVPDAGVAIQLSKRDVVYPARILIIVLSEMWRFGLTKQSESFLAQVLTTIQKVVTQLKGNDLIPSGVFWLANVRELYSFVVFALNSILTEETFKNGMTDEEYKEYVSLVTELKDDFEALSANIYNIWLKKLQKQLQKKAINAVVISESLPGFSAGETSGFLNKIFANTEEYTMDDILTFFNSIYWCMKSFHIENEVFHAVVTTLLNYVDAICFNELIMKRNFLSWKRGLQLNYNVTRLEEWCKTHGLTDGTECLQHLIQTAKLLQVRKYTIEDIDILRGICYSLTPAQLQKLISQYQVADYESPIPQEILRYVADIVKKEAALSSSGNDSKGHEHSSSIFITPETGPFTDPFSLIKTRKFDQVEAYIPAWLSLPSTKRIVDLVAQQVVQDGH

[11] = target: T6, Myo2-GTD W1407A (Saccharomyces cerevisiae (strain S288c)); experiment: ITC
T6 chain: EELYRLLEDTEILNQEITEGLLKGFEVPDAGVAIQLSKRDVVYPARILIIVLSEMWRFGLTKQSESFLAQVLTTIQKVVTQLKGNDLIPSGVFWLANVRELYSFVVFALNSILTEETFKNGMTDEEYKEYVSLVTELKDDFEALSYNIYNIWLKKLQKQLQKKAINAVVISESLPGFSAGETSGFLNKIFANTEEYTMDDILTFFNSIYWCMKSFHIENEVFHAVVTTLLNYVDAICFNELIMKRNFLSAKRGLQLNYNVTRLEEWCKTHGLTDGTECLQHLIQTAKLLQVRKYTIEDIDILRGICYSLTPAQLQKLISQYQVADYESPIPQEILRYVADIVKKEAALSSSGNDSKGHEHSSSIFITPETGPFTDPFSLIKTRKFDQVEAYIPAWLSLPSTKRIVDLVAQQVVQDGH

“GST-Pea2-CC1 (GST-tagged Pea2-CC1; dimer) (from UniProt P40091 235-327) (domain or fragment)” was tested, and the stoichiometry N [1] was 2.

“Myo2-GTD (globular tail domain of Myo2) (from UniProt P19524 1152-1574) (domain or fragment)” was tested, and the Kd [2] was 16 µM, the Kd [3] was 3 µM and the fold enhancement of the binding affinity over the Pea2-CC1 monomer [4] was 5 fold. It also gave a stoichiometry N [4] of 0.5.

B1: Kar9 413-530 (protein)
chain: KKKIPKPKSLGFGRPNSVIGTITQDFQERVAINEGDSNKTPENSTTVALKGKKLGKALLQKMNIKPATSPNSSNAINPFFDPESPNKGKLILSSVPPLPYDETDETTLRVSRGENEKS
With B1 the Kd [5] was 6.9 µM.

B2: Mmr1 (peptide)
chain: GNSARIPCPKTRLARVSVLDLKKIEEQPDSSSG
modifications: Limits taken from 6IXQ: the fusion as Smy1-MIS, TEV site, SG linker, Myo2-GTD, assumed uncleaved as a single chain; the linker is part of the fusion
B2 gave a Kd [6] of 6.2 µM.

For GNSARIPCPKTRLARVSVLDLKKIEEQPDSSSG, the Kd [7] was 6.8 µM and the Kd [8] was 21 µM.

B3: Kar9^C-MIS (Myo2-interacting sequence in the C-terminal region of Kar9) (domain or fragment)
chain: ALKGKKLGKALLQKMNIKPATSPNSSNAINPFFDPESPNKGKLILSSVPPLPY
In the case of B3, the Kd [5] is reported as 7.7 µM, the Kd [9] is reported as 8.9 µM and the Kd [10] is reported as 7.1 µM. For the same molecule, the Kd [11] was 7.5 µM and the Kd [8] was 7.7 µM.

Molecule NHGFHLDILKGRK [Inp2] has a Kd [7] of 32 µM.

B4: GST-Pea2-CC1 (GST-tagged Pea2-CC1; dimer) (domain or fragment)
chain: AIQEEDSSKKLEELETAFSDLQLAHNFLTKQFENDRAEYVQDIEKLTRTNRELQDKLLNNHSNLSKTEKKLHELEQENKELEKANNKLNSSRH
modifications: N-terminal GST (pGEX-4T-1) left out; GST drives the dimerization Limits taken from 6IXQ: the fusion as Smy1-MIS, TEV site, SG linker, Myo2-GTD, assumed uncleaved as a single chain; the linker is part of the fusion
With B4 the Kd [6] was 12 µM.

SSSSIATTGSQESFVARPFKKGLNLHSIKVTSSTPK (domain or fragment) [Smy1-MIS (Myo2-interacting sequence of Smy1)] gave a Kd [7] of 21 µM, a Kd [10] of 14 µM and a Kd [8] of 14 µM.

B5: Kar9^N (N-terminal folded domain of Kar9) (domain or fragment)
chain: MDNDGPRSMTIGDDFQENFCERLERIHNTLHSINDCNSLNESTTSISETLLVQFYDDLENVASVIPDLVNKKRLGKDDILLFMDWLLLKKYMLYQFISDVHNIEEGFAHLLDLLEDEFSKDDQDSDKYNRFSPMFDVIEESTQIKTQLEPWLTNLKELLDTSLEFNEISKDHMDTLHKIINSNISYCLEIQEERFASPIRHTPSFTLEQLVKLLGTHTETTEPKVPKFSPAEDILSRKFLNLKKNIPPIEKSLTDILPQRIVQFGHRNITNITTLQTILQKKYELIMKDYRFMNSEFRELKVELIDKRWNILFINLNHELLYILDEIERLQSKLLTTKYTKDITIRLERQLERKSKTVSKTFNIIYRALEFSLLDAGVASKTNELAQRWLNIKPTADKILIKSSASNKIATSKKKIPKPKSLGFGRPNSVIGTITQDFQERVAINEGDSNKTPENSTTVALKGKKLGKALLQKMNIKPATSPNSSNAINPFFDPESPNKGKLILSSVPPLPYDETDETTLRVSRGENEKSPDSFITSRHENKVQITETPLMAKNKSVLDIEKDKWNHYRSLPSRIPIYKDKVVKVTVENTPIAKVFQTPPTKITTPNSQVWVPSTRRRTRLRPPTPLSQLLSPREGRLDKTPTY
Molecule B5 has a Kd [10] of 16 µM and a Kd [8] of 16 µM.

B6: Kar9^N (N-terminal folded domain of Kar9) (domain or fragment)
chain: MDNDGPRSMTIGDDFQENFCERLERIHNTLHSINDCNSLNESTTSISETLLVQFYDDLENVASVIPDLVNKKRLGKDDILLFMDWLLLKKYMLYQFISDVHNIEEGFAHLLDLLEDEFSKDDQDSDKYNRFSPMFDVIEESTQIKTQLEPWLTNLKELLDTSLEFNEISKDHMDTLHKIINSNISYCLEIQEERFASPIRHTPSFTLEQLVKLLGTHTETTEPKVPKFSPAEDILSRKFLNLKKNIPPIEKSLTDILPQRIVQFGHRNITNITTLQTILQKKYELIMKDYRFMNSEFRELKVELIDKRWNILFINLNHELLYILDEIERLQSKLLTTKYTKDITIRLERQLERKSKTVSKTFNIIYRALEFSLLDAGVASKTNELAQRWLNIKPTADKILIKSSASNKIATSKKKIPKPKSLGFGRPNSVIGTITQDFQERVAINEGDSNKTPENSTTVALKGKKLGKALLQKMNIKPATSPNSSNAINPFFDPESPNKGKLILSSVPPLPYDETDETTLRVSRGENEKSPDSFITSRHENKVQITETPLMAKNKSVLDIEKDKWNHYRSLPSRIPIYKDKVVKVTVENTPIAKVFQTPPTKITTPNSQVWVPSTRRRTRLRPPTPLSQLLSPREGRLDKTPTY
modifications: Limits taken from 6IXQ: the fusion as Smy1-MIS, TEV site, SG linker, Myo2-GTD, assumed uncleaved as a single chain; the linker is part of the fusion
B6 was tested, and the Kd [6] was 17 µM.

B7: Vac17-MIS (Myo2-interacting sequence of Vac17) (domain or fragment)
chain: PNEAPNDSPQSQSTRSSLGSFQPRPLKIIERQRLCMVTPSKPPKKS
modifications: Limits taken from 6IXQ: the fusion as Smy1-MIS, TEV site, SG linker, Myo2-GTD, assumed uncleaved as a single chain; the linker is part of the fusion
In the case of B7, the Kd [6] is reported as 0.32 µM.
